Source: article PMC4434323

target: dmd-4 (C27C12.6) (Caenorhabditis elegans) (UniProt Q18248)
Sequence (Q18248 1-114): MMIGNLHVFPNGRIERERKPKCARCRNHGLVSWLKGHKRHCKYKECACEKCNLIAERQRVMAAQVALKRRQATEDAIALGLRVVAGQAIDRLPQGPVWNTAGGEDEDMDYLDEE

In order of rising binding signal (PBM E-score (-0.5 to 0.5)):
1. AAGATACA (double strand) [8-mer AAGATACA]  0.477
2. GATACATA (double strand) [8-mer GATACATA]  0.482
3. TGTAACAA (double strand) [8-mer TGTAACAA]  0.483
4. CATGTATC (double strand) [8-mer CATGTATC]  0.483
5. ATGATACA (double strand) [8-mer ATGATACA]  0.485
6. TGATACAA (double strand) [8-mer TGATACAA]  0.489
7. TAGATACA (double strand) [8-mer TAGATACA]  0.491
8. ATTGTATC (double strand) [8-mer ATTGTATC]  0.491
9. AAAGTATC (double strand) [8-mer AAAGTATC]  0.492
10. AGATACAT (double strand) [8-mer AGATACAT]  0.492
11. ATGTATCA (double strand) [8-mer ATGTATCA]  0.493
12. AATGTATC (double strand) [8-mer AATGTATC]  0.494
13. TGTATCAA (double strand) [8-mer TGTATCAA]  0.496

tested on: T1, syd-9 (ZK867.1) (Caenorhabditis elegans)
T1 sequence: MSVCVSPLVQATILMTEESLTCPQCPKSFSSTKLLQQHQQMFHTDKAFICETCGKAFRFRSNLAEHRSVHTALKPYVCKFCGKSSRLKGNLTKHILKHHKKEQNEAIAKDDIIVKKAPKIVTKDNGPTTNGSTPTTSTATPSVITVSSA

In order of falling binding signal (PBM E-score (-0.5 to 0.5)):
1. ACTGTACA (double strand) [8-mer ACTGTACA]  0.494
2. AACTGTAC (double strand) [8-mer AACTGTAC]  0.492
3. GAACTGTA (double strand) [8-mer GAACTGTA]  0.492
4. ACTGTACG (double strand) [8-mer ACTGTACG]  0.491
5. GACTGTAC (double strand) [8-mer GACTGTAC]  0.49
6. ACTGTAAT (double strand) [8-mer ACTGTAAT]  0.489
7. ACTGTACC (double strand) [8-mer ACTGTACC]  0.489

tested on: T2, C34D1.1 (C34D1.1) (Caenorhabditis elegans)
T2 sequence: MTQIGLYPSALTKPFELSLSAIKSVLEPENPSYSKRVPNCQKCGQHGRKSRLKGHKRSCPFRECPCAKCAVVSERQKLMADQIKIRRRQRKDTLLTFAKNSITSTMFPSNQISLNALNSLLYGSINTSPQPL

In order of rising binding signal (PBM E-score (-0.5 to 0.5)):
1. CATGTTTC (double strand) [8-mer CATGTTTC]  0.469
2. ATAGTTTC (double strand) [8-mer ATAGTTTC]  0.47
3. AGTGTTTC (double strand) [8-mer AGTGTTTC]  0.47
4. AAACATTT (double strand) [8-mer AAACATTT]  0.473
5. GTGAAACA (double strand) [8-mer GTGAAACA]  0.484
6. TGTTTCAA (double strand) [8-mer TGTTTCAA]  0.485
7. TGAAACAA (double strand) [8-mer TGAAACAA]  0.485
8. ATGAAACA (double strand) [8-mer ATGAAACA]  0.486
9. ATTGTTTC (double strand) [8-mer ATTGTTTC]  0.487
10. GAAACATA (double strand) [8-mer GAAACATA]  0.488

target: ztf-11 (F52F12.6) (Caenorhabditis elegans) (UniProt O02274)
Sequence (O02274 212-388): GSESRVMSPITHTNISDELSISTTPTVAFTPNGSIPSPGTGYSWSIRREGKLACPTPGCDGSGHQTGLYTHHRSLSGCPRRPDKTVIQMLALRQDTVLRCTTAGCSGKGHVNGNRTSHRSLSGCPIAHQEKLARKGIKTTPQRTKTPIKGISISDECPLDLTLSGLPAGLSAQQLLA

In order of rising binding signal (PBM E-score (-0.5 to 0.5)):
1. AACTTTTG (double strand) [8-mer AACTTTTG]  0.48
2. AAGTTTGA (double strand) [8-mer AAGTTTGA]  0.48
3. AAGTTTTC (double strand) [8-mer AAGTTTTC]  0.48
4. CAAACTTC (double strand) [8-mer CAAACTTC]  0.48
5. AAACTTTG (double strand) [8-mer AAACTTTG]  0.481
6. GAAACTTC (double strand) [8-mer GAAACTTC]  0.481
7. AAGTTTGC (double strand) [8-mer AAGTTTGC]  0.483
8. AAGTTTCG (double strand) [8-mer AAGTTTCG]  0.483
9. AAGTTTGG (double strand) [8-mer AAGTTTGG]  0.485
10. AAACTTGC (double strand) [8-mer AAACTTGC]  0.485
11. CAAACTTG (double strand) [8-mer CAAACTTG]  0.487
12. AAGTTTGT (double strand) [8-mer AAGTTTGT]  0.487
13. AAACTTCG (double strand) [8-mer AAACTTCG]  0.487
14. AAAAGTTT (double strand) [8-mer AAAAGTTT]  0.492
15. AAAGTTTG (double strand) [8-mer AAAGTTTG]  0.494

target: dmd-5 (F10C1.5) (Caenorhabditis elegans) (UniProt Q19291)
Sequence (Q19291 1-125): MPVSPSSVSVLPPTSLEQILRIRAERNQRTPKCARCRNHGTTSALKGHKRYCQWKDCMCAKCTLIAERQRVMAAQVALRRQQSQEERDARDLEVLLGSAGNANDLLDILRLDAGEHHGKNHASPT

In order of falling binding signal (PBM E-score (-0.5 to 0.5)):
1. TGTATCAA (double strand) [8-mer TGTATCAA]  0.49
2. ACTGTAAC (double strand) [8-mer ACTGTAAC]  0.49
3. ACAGTTGC (double strand) [8-mer ACAGTTGC]  0.489
4. ACTGTTGC (double strand) [8-mer ACTGTTGC]  0.488
5. ATGTATCA (double strand) [8-mer ATGTATCA]  0.486
6. ATTGTATC (double strand) [8-mer ATTGTATC]  0.486
7. AATGTATC (double strand) [8-mer AATGTATC]  0.485
8. TGTAACAA (double strand) [8-mer TGTAACAA]  0.484
9. ACTGTATC (double strand) [8-mer ACTGTATC]  0.484
10. ACAGTAAC (double strand) [8-mer ACAGTAAC]  0.482
11. ATTGTAAC (double strand) [8-mer ATTGTAAC]  0.481
12. AATTGTTA (double strand) [8-mer AATTGTTA]  0.478
13. ATTGTTAC (double strand) [8-mer ATTGTTAC]  0.476
14. ATGTTACA (double strand) [8-mer ATGTTACA]  0.475

target: T3, Y48G1C.6 (Y48G1C.6) (Caenorhabditis elegans) (UniProt Q9N3P2)
T3 sequence: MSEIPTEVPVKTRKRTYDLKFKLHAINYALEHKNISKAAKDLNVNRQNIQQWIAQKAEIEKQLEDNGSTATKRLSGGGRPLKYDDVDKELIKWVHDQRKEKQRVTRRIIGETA

In order of falling binding signal (PBM E-score (-0.5 to 0.5)):
1. GCATGCAA (double strand) [8-mer GCATGCAA]  0.496
2. CATGCAAG (double strand) [8-mer CATGCAAG]  0.496
3. ATGCAAGA (double strand) [8-mer ATGCAAGA]  0.495
4. ATCTTGCA (double strand) [8-mer ATCTTGCA]  0.495
5. ACTTGCAC (double strand) [8-mer ACTTGCAC]  0.495
6. CTTGCACC (double strand) [8-mer CTTGCACC]  0.494
7. GTGCAAGA (double strand) [8-mer GTGCAAGA]  0.494
8. GTCTTGCA (double strand) [8-mer GTCTTGCA]  0.494
9. AACTTGCA (double strand) [8-mer AACTTGCA]  0.494
10. ACTTGCAG (double strand) [8-mer ACTTGCAG]  0.494
11. CTGCAAGA (double strand) [8-mer CTGCAAGA]  0.494
12. ACTGCAAG (double strand) [8-mer ACTGCAAG]  0.493
13. AGTGCAAG (double strand) [8-mer AGTGCAAG]  0.493
14. CCTGCAAG (double strand) [8-mer CCTGCAAG]  0.493
15. ACTTGCAT (double strand) [8-mer ACTTGCAT]  0.493
